Our source for the binding result and Kd values is patent US20130216544A1 (GEMOAB MONOCLONALS, published 2013).

Positions count from the first letter of the chain named.

Assay [1] has as its target T1, eukaryotic murine La protein (mLa) (murine, UniProt P32067 1-415).
T1 construct: In total extracts or fixed cells; also called endogenous mLa protein; eukaryote-produced murine La protein
T1 sequence (looked up): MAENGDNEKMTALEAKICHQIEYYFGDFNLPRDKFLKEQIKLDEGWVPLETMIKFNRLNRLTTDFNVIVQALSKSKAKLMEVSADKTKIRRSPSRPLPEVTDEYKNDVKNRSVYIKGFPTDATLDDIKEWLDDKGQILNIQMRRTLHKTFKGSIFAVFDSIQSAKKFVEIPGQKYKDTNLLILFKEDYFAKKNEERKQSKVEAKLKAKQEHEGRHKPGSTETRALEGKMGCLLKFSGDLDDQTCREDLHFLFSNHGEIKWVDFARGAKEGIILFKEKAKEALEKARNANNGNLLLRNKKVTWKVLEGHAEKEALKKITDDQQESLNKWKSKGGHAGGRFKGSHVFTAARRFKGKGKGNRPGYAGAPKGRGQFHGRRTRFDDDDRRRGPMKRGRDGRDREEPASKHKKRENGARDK
The experiment in a line: immunoblot, 3T3 total extract. (A western blot detects proteins with antibodies after separation by electrophoresis.)

The target in assay [2] is T2, bacterially produced recombinant murine La protein (rmLa) (murine, UniProt P32067 1-415).
T2 construct: also called prokaryote-produced murine La protein
T2 sequence (looked up): T1 sequence (looked up)
The experiment in a line: immunoblot, bacterially produced rmLa.

Assay [3] concerns the target T3, recombinant human La protein (rhLa), SEQ ID No. 1 with His tag (human, UniProt P05455 1-408).
T3 construct: Also used to decorate the surface of 3T3 and HEK 293T PSCA cells; also called rhLa protein; His 6hLa protein; not shown: His tag
T3 sequence: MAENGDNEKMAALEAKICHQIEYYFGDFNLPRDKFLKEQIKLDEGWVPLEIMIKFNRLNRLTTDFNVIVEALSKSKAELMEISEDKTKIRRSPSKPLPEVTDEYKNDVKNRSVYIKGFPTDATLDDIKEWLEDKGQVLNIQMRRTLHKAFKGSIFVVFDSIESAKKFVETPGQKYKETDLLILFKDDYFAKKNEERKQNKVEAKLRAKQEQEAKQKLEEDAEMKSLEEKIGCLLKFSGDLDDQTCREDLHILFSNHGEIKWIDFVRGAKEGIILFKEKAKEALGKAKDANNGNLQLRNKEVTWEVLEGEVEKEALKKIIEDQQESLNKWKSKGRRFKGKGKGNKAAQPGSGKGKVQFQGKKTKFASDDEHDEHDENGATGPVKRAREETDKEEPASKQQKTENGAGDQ
Kind of assay: method and form of the antigen not stated.

B1: anti-La monoclonal antibody 27E (antibody, IgG2b, V domains shown)
VH: VQLQESGAELARPGASVKLSCKASGYSFRSYGINWVKQRTGQGLEWIGEIYPGSGTTFYNEKFRGKATLTADKSSSTAYMQLKSLTSEDSAVYFCARHGGYPFYFDYWGQGTTLTVSS
VL: DIVMTQSPAIMSASPGEKVTISCSASSSVSYMYWYQQKPGSSPKPWIYRTSNLASGVPARFSGSGSGTSYSLTISSMEAEDAATYYCQQYHSYPRTFGGGTKLEIKR
In general, Kd refers to the equilibrium constant for the complex coming apart. On to B1, for which the binding result in assay [1] and in assay [2] was “binds” in each case. The Kd in assay [3] is approximately 0.1 nM.

B2: anti-La monoclonal antibody 32A (antibody, IgG1, V domains shown)
VH: VQLQQSGAELARPGASVKLSCKASGYTFTTYGLTWVKQRTGQGLEWIGEIFPGSGTTFYNEKFNDKATLTADKSSSTAYMQLTSLTSEDSAVYFCARYSNYPYYFDYWGQGTTLTVSS
VL: B1 VL with D1Q, M4L, A9T, A59D
Turning to B2, the binding result in assay [1] and in assay [2] was “no binding” throughout. For the same molecule, the Kd in assay [3] is approximately 0.1 nM.

B3: anti-La monoclonal antibody 312B (antibody, IgG1, V domains shown)
VH: QVKLQESGAELMKPGSSVKFSCKAAGYTFTDYWIEWLKQRPGHGLEWIGEILPGSVSIKYNEKFKGKATFTADTSSNTAYMQLSSLTSEDSAVYYCARSRSIYDGYFYYWGQGTTLTVSS
VL: DIVMTQSTASLSASVGETVTITCRASENIYTYLAWYQQKQGKSPQLLVYNAKTLAEGVPSRFSGSGSGTQFSLRINSLQPEDFGSYYCQHHYGTPYTFGGGTKLEIK
B3: the binding result in assay [1] and in assay [2] was “binds” in each case. In assay [3], the Kd was approximately 0.1 nM.

B4: anti-La monoclonal antibody 22A (antibody, IgG1, V domains shown)
VH: QVKLEESGPELVKPGAPVKISCKTSGYTFTNYYIYWVKQRPGQGLEWIGYIYPGNGGTAYNQKFKDKATLTADNPSNTAYMQLSSLTSEDSAVYLCARRGALGYYFDYWGQGTTLTVSS
VL: QIVLTQSPAIMSASPGEKVTMTCSASSSVSYMYWYQQKSGTSPKRWIYDTSKLASGVPARFSGSGSGTSYSLTISSMEAEDAATYYCQQWSSNPQFGTGTKLEVKR
As for B4, the binding result in assay [1] and in assay [2] was “no binding” each time. Also, in assay [3], the Kd was approximately 0.1 nM.

B5: anti-La monoclonal antibody 5B9 (antibody, IgG2a, V domains shown)
VH: VQLEESGAELVKPGASVKLSCKASGYAFTHYYIYWIKQRPGQGLEWIGGVNPSNGGTHFNEKFKSKATLTVDKSSSTAYMQLSSLTSEDSAVYYCTRSEYDYGLGFAYWGQGTLVTVSA
VL: IVLTQTTSSLAVSAGEKVTMSCKSSQSLLNSRTPKNYLAWYQQKPGQSPKLLIYWASTRKSGVPDRFTGSGSGTDFTLTISSVQAEDLAVYYCKQSYNLLTFGAGTKLELKR
notes: also called anti-La-5B9
Take B5: the Kd in assay [3] was approximately 0.1 nM.

B6: anti-La monoclonal antibody 24BG7 (antibody, IgG1, V domains shown)
VH: QVQLQQSGAELARPGASVKLSCKASGYSLTNYGISWVKQRTGQGLEWIGEIYRGSGNSYYNEKFKGKASLTADKSSSTAYMQLSSLTSEDSAVYFCARGGLSFAYWGQGTLVTVSA
VL: QIVLTQSPAIMSASPGEKVTMTCSASSSVTYMHWYQQKSGTSPKRWIYDTSKLASGVPARFSGSGSGTSYSLTISTMEAEDAATYYCQQWISNPPTFGGGTKLEIKR
In the case of B6, the Kd in assay [3] was approximately 0.1 nM.

B7: anti-La monoclonal antibody 7B6 (antibody, V domains shown)
VH: VKLQESGGGLVQPGRPMKLSCVASGFTFSDFWMNWVRQSPEKGLEWVAQIRNKPNNYETYYSDSLKGRFTISRDDSKSSVYLQMNNLRPEDMGIYYCTLGNSWFAYWGQGTLVTVS
VL: DIVITQSPSSLAVSAGEKVTMSCRSSQSLLDSRTRKNYLAWYQQKPGQSPKLLIYWASTRESGVPDRFTGSGSGTDFTLTISNVQAEDLAVYYCKQSYNLPTFGGGTKLEI
notes: Used as hybridoma supernatant or mAb; also called mAk 7B6; anti-La 7B6
Take B7: in assay [3], the Kd was approximately 0.1 nM.

B8: anti-La monoclonal antibody 2F9 (antibody, IgG1, V domains shown)
VH: EVQLQESGPGILQPSQTLSLTCSFSGFSLSTSGMGVSWIRQPSGKGLEWLAHIYWDDDKGYNPSLKSRLTISKDTSRNQVFLKITSVDTADTATYYCARGDVEFDYWGQGTTLTVSS
VL: DIVLTQSTASLAVSLGQRATISCRASESVDSYGNSFMHWYQQKPGQPPKLLIYRASNLESGIPARFSGSGSRTDFTLTINPVEADDVATYYCQQSNEDPPTFGSGTKLEIK
Take B8: in assay [2], the binding result is “binds”.
